What was measured:
Test in all cases: SPR; 40 RU of each antibody immobilized on a CM5 chip; oxMIF (MIF treated with 0.2% Proclin300) injected at 3–25 nM in HBS-EP (HEPES 10 mM, NaCl 150 mM, EDTA 3 mM, 0.005% Tween-20); BIAcore T200; 25 °C; 1:1 Langmuir model
[1] = target: BaxM159 variant 1-DIQMAQ (parental anti-oxMIF antibody without the heavy chain C-terminal lysine)
[2] = target: BaxM159 variant 2-DIQMAQ-K (parental anti-oxMIF antibody with the heavy chain C-terminal lysine)
[3] = target: BaxM159 variant 3-EIVLAQ
[4] = target: BaxM159 variant 4-DIQMGQ
[5] = target: BaxM159 variant 5-DIQMAE
[6] = target: BaxM159 variant 6-EIVLGQ
[7] = target: BaxM159 variant 7-EIVLAE
[8] = target: BaxM159 variant 8-DIQMGE
[9] = target: BaxM159 variant 9-EIVLGE

B1: oxidized macrophage migration inhibitory factor (oxMIF) (natural protein)
chain: MPMFIVNTNVPRASVPDGFLSELTQQLAQATGKPPQYIAVHVVPDQLMAFGGSSEPCALCSLHSIGKIGGAQNRSYSKLLCGLLAERLRISPDRVYINYYDMNAANVGWNNSTFA
modifications: converted to its oxidized form by treatment with 0.2% Proclin300
Question: B1 was tested. Which Kd [1] did it give?
Answer: 2.6 nM

Question: What about the koff [1] of the same binder?
Answer: 0.00029 s⁻¹

Question: What about the kon [1] of the same binder?
Answer: 110000 M⁻¹ s⁻¹

Question: And the Kd [2]?
Answer: 3 nM

Question: What about the koff [2] of the same binder?
Answer: 0.00038 s⁻¹

Question: What about the kon [2] of the same binder?
Answer: 130000 M⁻¹ s⁻¹

Question: And the Kd [3]?
Answer: 1.5 nM

Question: What about the koff [3] of the same binder?
Answer: 0.00031 s⁻¹

Question: And the kon [3]?
Answer: 200000 M⁻¹ s⁻¹

Question: What about the Kd [4] of the same binder?
Answer: 4.3 nM

Question: And the koff [4]?
Answer: 0.00056 s⁻¹

Question: What about the kon [4] of the same binder?
Answer: 160000 M⁻¹ s⁻¹

Question: What about the Kd [5] of the same binder?
Answer: 2.5 nM

Question: What about the koff [5] of the same binder?
Answer: 0.0004 s⁻¹

Question: And the kon [5]?
Answer: 160000 M⁻¹ s⁻¹

Question: What about the Kd [6] of the same binder?
Answer: 2.7 nM

Question: And the koff [6]?
Answer: 0.00064 s⁻¹

Question: What about the kon [6] of the same binder?
Answer: 260000 M⁻¹ s⁻¹

Question: What about the Kd [7] of the same binder?
Answer: 2.4 nM

Question: And the koff [7]?
Answer: 0.00044 s⁻¹

Question: And the kon [7]?
Answer: 180000 M⁻¹ s⁻¹

Question: What about the Kd [8] of the same binder?
Answer: 4.2 nM

Question: And the koff [8]?
Answer: 0.00054 s⁻¹

Question: And the kon [8]?
Answer: 130000 M⁻¹ s⁻¹

Question: What about the Kd [9] of the same binder?
Answer: 1.4 nM

Question: And the koff [9]?
Answer: 0.00044 s⁻¹

Question: And the kon [9]?
Answer: 310000 M⁻¹ s⁻¹
